Measurements: US20050164936A1

Key:
Experiment in all cases: cell-based or functional assay
RANTES(1-68) (human) = RANTES(1-68) (human) (UniProt P13501)
[1] = biological target: T1, CC chemokine receptor CCR1 (UniProt P32246)
T1 sequence (looked up): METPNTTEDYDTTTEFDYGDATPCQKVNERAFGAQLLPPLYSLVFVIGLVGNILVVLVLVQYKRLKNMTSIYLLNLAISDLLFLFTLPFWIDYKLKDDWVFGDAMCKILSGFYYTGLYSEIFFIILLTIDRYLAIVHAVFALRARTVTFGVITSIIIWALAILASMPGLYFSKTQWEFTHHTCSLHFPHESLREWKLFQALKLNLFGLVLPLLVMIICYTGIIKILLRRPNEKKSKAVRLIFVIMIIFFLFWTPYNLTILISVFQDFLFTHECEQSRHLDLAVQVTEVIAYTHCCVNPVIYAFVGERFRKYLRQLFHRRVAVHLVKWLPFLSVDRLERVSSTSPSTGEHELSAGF

[2] = biological target: CC chemokine receptor CCR5 (human) (UniProt P51681)
[3] = biological target: T2, CC chemokine receptor CCR3 (UniProt P51677)
T2 sequence (looked up): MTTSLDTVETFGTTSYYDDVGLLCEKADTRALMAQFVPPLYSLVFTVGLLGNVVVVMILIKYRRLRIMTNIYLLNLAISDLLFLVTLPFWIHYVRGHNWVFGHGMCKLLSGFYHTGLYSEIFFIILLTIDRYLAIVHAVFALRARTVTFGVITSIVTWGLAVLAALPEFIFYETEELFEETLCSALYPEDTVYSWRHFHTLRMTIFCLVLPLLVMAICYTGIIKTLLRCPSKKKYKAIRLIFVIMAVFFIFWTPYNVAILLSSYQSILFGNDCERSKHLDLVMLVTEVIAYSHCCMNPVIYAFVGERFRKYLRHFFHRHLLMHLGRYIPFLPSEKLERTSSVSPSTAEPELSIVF

Chain of RANTES(1-68) (P13501 24-91 limits assumed): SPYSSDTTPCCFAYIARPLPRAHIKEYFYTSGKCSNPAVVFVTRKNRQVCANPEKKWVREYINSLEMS
Chain of RANTES(3-68) (P13501 26-91 limits assumed): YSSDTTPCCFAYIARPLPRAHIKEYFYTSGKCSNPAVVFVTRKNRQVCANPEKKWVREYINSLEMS
Chain of CC chemokine receptor CCR5 (human) (P51681 whole entry): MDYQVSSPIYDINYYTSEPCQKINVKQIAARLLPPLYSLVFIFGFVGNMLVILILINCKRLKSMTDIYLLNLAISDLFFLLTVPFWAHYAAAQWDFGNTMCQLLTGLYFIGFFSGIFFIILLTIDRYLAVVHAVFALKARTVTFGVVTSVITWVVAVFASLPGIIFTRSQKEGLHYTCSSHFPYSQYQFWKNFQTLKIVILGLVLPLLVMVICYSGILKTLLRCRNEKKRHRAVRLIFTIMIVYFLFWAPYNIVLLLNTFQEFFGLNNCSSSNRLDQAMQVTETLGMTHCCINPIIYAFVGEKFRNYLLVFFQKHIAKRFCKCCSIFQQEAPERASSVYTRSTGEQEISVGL
Chain of RANTES(1-68) (human) (P13501 24-91 limits assumed): as the sequence (P13501 24-91 limits assumed) above
Chain of soluble CD26 (sCD26) (P27487 39-766 limits assumed): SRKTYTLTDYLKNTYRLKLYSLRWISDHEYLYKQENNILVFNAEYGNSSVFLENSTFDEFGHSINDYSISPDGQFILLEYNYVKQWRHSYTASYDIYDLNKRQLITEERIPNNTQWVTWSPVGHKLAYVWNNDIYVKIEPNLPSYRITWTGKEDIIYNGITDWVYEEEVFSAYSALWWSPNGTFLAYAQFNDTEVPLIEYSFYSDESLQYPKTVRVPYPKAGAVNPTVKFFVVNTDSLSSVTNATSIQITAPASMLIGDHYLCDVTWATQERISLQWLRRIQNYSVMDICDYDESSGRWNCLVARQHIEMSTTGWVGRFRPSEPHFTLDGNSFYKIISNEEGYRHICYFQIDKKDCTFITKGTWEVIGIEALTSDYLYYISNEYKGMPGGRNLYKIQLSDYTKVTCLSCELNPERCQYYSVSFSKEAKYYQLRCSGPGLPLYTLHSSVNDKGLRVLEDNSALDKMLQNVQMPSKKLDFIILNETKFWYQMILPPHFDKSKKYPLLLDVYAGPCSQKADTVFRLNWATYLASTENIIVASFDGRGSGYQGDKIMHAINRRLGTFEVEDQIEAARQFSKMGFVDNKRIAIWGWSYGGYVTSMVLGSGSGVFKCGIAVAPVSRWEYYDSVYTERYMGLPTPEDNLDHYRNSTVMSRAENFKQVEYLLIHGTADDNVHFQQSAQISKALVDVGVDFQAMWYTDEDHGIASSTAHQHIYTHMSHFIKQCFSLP

Row | Substance | IC50 of RANTES(1-68) against HIV-1 BaL in HOS.CD4.CCR5 cells when sCD26 at 50 U/l is added (p24 Ag ELISA) (RANTES(1-68) (human)) | Increase in [Ca2+]i (nM) at 10 ng/ml, HOS cells transfected with CD4 and CCR1 [1] | Increase in [Ca2+]i (nM) at 30 ng/ml, HOS cells transfected with CD4 and CCR1 [1] | Increase in [Ca2+]i (nM) at 100 ng/ml, HOS cells transfected with CD4 and CCR1 [1] | Increase in [Ca2+]i (nM) at 300 ng/ml, HOS cells transfected with CD4 and CCR1 [1] | IC50, inhibition of HIV-1 BaL replication in HOS.CD4.CCR5 cells (p24 Ag ELISA) [2] | IC50, inhibition of HIV-1 BaL replication in U87.CD4.CCR5 cells (p24 Ag ELISA) [2] | IC90, inhibition of HIV-1 BaL replication in HOS.CD4.CCR5 cells (p24 Ag ELISA) [2] | IC90, inhibition of HIV-1 BaL replication in U87.CD4.CCR5 cells (p24 Ag ELISA) [2] | Increase in [Ca2+]i (nM) at 10 ng/ml, HOS cells transfected with CD4 and CCR5 [2] | Increase in [Ca2+]i (nM) at 30 ng/ml, HOS cells transfected with CD4 and CCR5 [2] | Increase in [Ca2+]i (nM) at 100 ng/ml, HOS cells transfected with CD4 and CCR5 [2] | Increase in [Ca2+]i (nM) at 300 ng/ml, HOS cells transfected with CD4 and CCR5 [2] | inhibition of the [Ca2+]i rise by a subsequent challenge with intact RANTES (100 ng/ml) after pre-incubation of CCR5-transfected cells with a 3- to 10-fold excess [2] | concentration sufficient to increase [Ca2+]i in HOS cells transfected with CCR3 [3] | concentration needed to increase [Ca2+]i in HOS cells transfected with CCR3 [3]
1 | soluble CD26 (sCD26) (from UniProt P27487 39-766) (enzyme) | 13 nM |  |  |  |  |  |  |  |  |  |  |  |  |  |  | 
2 | RANTES(1-68) (from UniProt P13501 24-91) (ligand) |  | < 16 nM | 25 nM | 100 nM | 133 nM | > 130 nM | 21 nM | > 130 nM | > 130 nM | < 15 nM | 24 nM | 60 nM | 96 nM | 75% | 100 ng/mL | 
3 | RANTES(3-68) (from UniProt P13501 26-91) (ligand) |  |  | < 15 nM | < 15 nM | 19 nM | 5.5 nM | 0.65 nM | > 130 nM | 63 nM | < 15 nM | 56 nM | 76 nM | 119 nM | 75% |  | > 300 ng/mL
